# In paper PMC7679444:
# B1: TMEM59 peptide (residues 268–280), wild type [modified: long spacer (Tds) at the N-terminal end, used for immobilisation; long spacer (Tds) at the N-terminal end, used for immobilisation] [not stated] / GST-HA-ATG16L1(231–607) … (parent)
# chain 1: PLPVEQDDDIEVIVDETSDHTEETSPVRAISRAATKRLSQPAGGLLDSITNIFGRRSVSSFPVPQDNVDTHPGSGKEVRVPATALCVFDAHDGEVNAVQFSPGSRLLATGGMDRRVKLWEVFGEKCEFKGSLSGSNAGITSIEFDSAGSYLLAASNDFASRIWTVDDYRLRHTLTGHSGKVLSAKFLLDNARIVSGSHDRTLKLWDLRSKVCIKTVFAGSSCNDIVCTEQCVMSGHFDKKIRFWDIRSESIVREMELLGKITALDLNPERTELLSCSRDDLLKVIDLRTNAIKQTFSAPGFKCGSDWTRVVFSPDGSYVAAGSAEGSLYIWSVLTGKVEKVLSKQHSSSINAVAWSPSGSHVVSVDKGCKAVLWAQY
# chain 2: YVPSEKLSIYGDL
# Variants of: B1
# Assay: peptide microarray
# Conditions: with GST-HA-ATG16L1(231–607) [human], parent: 100
"percent of parent (ligand 800, 600, 400 nM) [% WT]","percent of parent (ligand 200, 50, 20 nM) [% WT]",Variant
3,–,chain 2 Y10M
135,–,chain 2 Y10W
3,–,chain 2 Y10H
6,–,chain 2 Y10K
2,–,chain 2 Y10G
9,–,chain 2 Y10V
4,–,chain 2 Y10T
5,–,chain 2 Y10R
4,–,chain 2 Y10A
3,–,chain 2 Y10N
106,–,chain 2 Y10F
31,33,chain 2 V2T
25,19,chain 2 V2N
177,250,chain 2 V2F
50,47,chain 2 V2A
99,96,chain 2 V2I
15,12,chain 2 V2Q
11,9,chain 2 V2E
58,73,chain 2 V2G
96,101,chain 2 V2K
90,80,chain 2 V2Y
28,31,chain 2 V2M
18,13,chain 2 V2D
56,50,chain 2 V2S

"percent of parent (ligand 800, 600, 400 nM) [% WT]","percent of parent (ligand 200, 50, 20 nM) [% WT]",Variant
47,41,chain 2 V2R
41,35,chain 2 V2P
134,145,chain 2 V2L
119,118,chain 2 V2W
67,55,chain 2 V2H
67,54,chain 2 S8T
59,55,chain 2 S8A
144,158,chain 2 S8K
11,6,chain 2 S8E
74,56,chain 2 S8L
113,64,chain 2 S8Q
115,113,chain 2 S8R
57,56,chain 2 S8G
115,124,chain 2 S8H
137,–,chain 2 S8Y
144,175,chain 2 S8F
9,7,chain 2 S8D
179,–,chain 2 S8W
27,21,chain 2 S8M
51,41,chain 2 S8I
111,126,chain 2 S8N
78,50,chain 2 S8P
60,–,chain 2 S8V
39,–,chain 2 I9G

"percent of parent (ligand 800, 600, 400 nM) [% WT]","percent of parent (ligand 200, 50, 20 nM) [% WT]",Variant
200,–,chain 2 I9W
198,–,chain 2 I9Y
49,–,chain 2 I9T
76,–,chain 2 I9A
93,–,chain 2 I9R
96,–,chain 2 I9E
89,–,chain 2 I9P
51,–,chain 2 I9N
109,–,chain 2 I9V
15,–,chain 2 I9D
66,–,chain 2 I9M
145,–,chain 2 I9H
149,–,chain 2 I9K
95,–,chain 2 I9L
159,–,chain 2 I9F
61,–,chain 2 I9S
102,–,chain 2 I9Q
95,83,chain 2 L7I
89,102,chain 2 L7F
59,32,chain 2 L7R
52,39,chain 2 L7M
87,69,chain 2 L7Y
12,11,chain 2 L7D
11,13,chain 2 L7P

"percent of parent (ligand 800, 600, 400 nM) [% WT]","percent of parent (ligand 200, 50, 20 nM) [% WT]",Variant
88,98,chain 2 L7A
103,66,chain 2 L7H
58,31,chain 2 L7S
112,38,chain 2 L7W
73,38,chain 2 L7T
7,3,chain 2 L7E
142,153,chain 2 L7V
53,22,chain 2 L7K
28,11,chain 2 L7Q
75,46,chain 2 L7N
86,54,chain 2 L7G
95,86,chain 2 E5A
142,158,chain 2 E5G
183,269,chain 2 E5N
135,146,chain 2 E5S
148,158,chain 2 E5Y
183,303,chain 2 E5H
167,214,chain 2 E5Q
126,123,chain 2 E5D
97,92,chain 2 E5P
32,27,chain 2 E5I
109,105,chain 2 E5W
179,261,chain 2 E5T
186,330,chain 2 E5K

"percent of parent (ligand 800, 600, 400 nM) [% WT]","percent of parent (ligand 200, 50, 20 nM) [% WT]",Variant
29,22,chain 2 E5F
52,47,chain 2 E5V
162,217,chain 2 E5M
165,224,chain 2 E5R
51,42,chain 2 E5L
110,–,chain 2 D12L
191,–,chain 2 D12K
128,–,chain 2 D12N
138,–,chain 2 D12F
105,–,chain 2 D12Q
179,–,chain 2 D12H
128,–,chain 2 D12S
180,–,chain 2 D12Y
93,–,chain 2 D12M
145,–,chain 2 D12P
133,–,chain 2 D12T
173,–,chain 2 D12E
131,–,chain 2 D12A
177,–,chain 2 D12W
129,–,chain 2 D12I
159,–,chain 2 D12V
164,–,chain 2 D12R
158,–,chain 2 D12G
